Laboratory results: PMC12416549 (2024)
Positions count from the first letter of the chain named. Numbers in names are those of the source. One block for each binder: values may come before it.

Target: T1, TNFR1 (Homo sapiens, UniProt P19438)
T1 chain: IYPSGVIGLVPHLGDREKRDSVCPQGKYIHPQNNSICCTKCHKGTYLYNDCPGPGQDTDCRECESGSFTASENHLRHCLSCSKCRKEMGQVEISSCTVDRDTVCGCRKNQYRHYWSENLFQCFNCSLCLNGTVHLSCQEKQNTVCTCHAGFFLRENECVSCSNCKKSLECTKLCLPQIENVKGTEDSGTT
Experiment: yeast display SC50

B4: V57R (designed binder)
chain: MTLQELLREEALRRAEAEAFRYALELLAEKFPEQKEYLLDLAEEIESQIRSLSGVDREDVRKFLDKEWAWVKELLAEHPAELAEVEAARAARLAELRAEVEAKVAA
apparent Kd (screen): 0.79 nM

B8: Y22T (designed binder)
chain: B4 chain with Y22T, R57V
apparent Kd (screen): 0.49 nM

B9: L6R (designed binder)
chain: B4 chain with L6R, R57V
apparent Kd (screen): 12.5 nM

B10: S53N (designed binder)
chain: B4 chain with S53N, R57V
apparent Kd (screen): 0.653 nM

B11: V60C (designed binder)
chain: B4 chain with R57V, V60C
apparent Kd (screen): 0.79 nM

B12: T2H (designed binder)
chain: B4 chain with T2H, R57V
apparent Kd (screen): 0.869 nM

B13: A11K (designed binder)
chain: B4 chain with A11K, R57V
apparent Kd (screen): 0.539 nM

B16: L12K (designed binder)
chain: B4 chain with L12K, R57V
apparent Kd (screen): 0.539 nM

B17: E29M (designed binder)
chain: B4 chain with E29M, R57V
apparent Kd (screen): 0.539 nM

B18: L3C (designed binder)
chain: B4 chain with L3C, R57V
apparent Kd (screen): 12.5 nM

B19: R50W (designed binder)
chain: B4 chain with R50W, R57V
apparent Kd (screen): 2.73 nM

B20: T2C (designed binder)
chain: B4 chain with T2C, R57V
apparent Kd (screen): 2.73 nM

B23: A42R (designed binder)
chain: B4 chain with A42R, R57V
apparent Kd (screen): 2.25 nM

B24: Q34C (designed binder)
chain: B4 chain with Q34C, R57V
apparent Kd (screen): 1.05 nM

B27: D56R (designed binder)
chain: B4 chain with D56R, R57V
apparent Kd (screen): 2.25 nM

B28: R13V (designed binder)
chain: B4 chain with R13V, R57V
apparent Kd (screen): 0.335 nM

B29: T2L (designed binder)
chain: B4 chain with T2L, R57V
apparent Kd (screen): 0.49 nM

B31: V57W (designed binder)
chain: B4 chain with R57W
apparent Kd (screen): 1.27 nM

B34: S47Y (designed binder)
chain: B4 chain with S47Y, R57V
apparent Kd (screen): 0.49 nM

B35: A19Y (designed binder)
chain: B4 chain with A19Y, R57V
apparent Kd (screen): 10.4 nM

B37: I45Y (designed binder)
chain: B4 chain with I45Y, R57V
apparent Kd (screen): 1.86 nM

B38: E18M (designed binder)
chain: B4 chain with E18M, R57V
apparent Kd (screen): 0.49 nM

B39: Q34G (designed binder)
chain: B4 chain with Q34G, R57V
apparent Kd (screen): 0.593 nM

B41: D56M (designed binder)
chain: B4 chain with D56M, R57V
apparent Kd (screen): 0.956 nM

B43: L39Q (designed binder)
chain: B4 chain with L39Q, R57V
apparent Kd (screen): 1.27 nM

B44: Q48F (designed binder)
chain: B4 chain with Q48F, R57V
apparent Kd (screen): 13.8 nM

B45: F31V (designed binder)
chain: B4 chain with F31V, R57V
apparent Kd (screen): 0.653 nM

B47: Y37L (designed binder)
chain: B4 chain with Y37L, R57V
apparent Kd (screen): 7.78 nM

B49: V57G (designed binder)
chain: B4 chain with R57G
apparent Kd (screen): 1.86 nM

B52: E9Y (designed binder)
chain: B4 chain with E9Y, R57V
apparent Kd (screen): 1.05 nM

B53: E58Q (designed binder)
chain: B4 chain with R57V, E58Q
apparent Kd (screen): 0.653 nM

B54: E33A (designed binder)
chain: B4 chain with E33A, R57V
apparent Kd (screen): 0.208 nM

B56: E46K (designed binder)
chain: B4 chain with E46K, R57V
apparent Kd (screen): 0.593 nM

B57: R13T (designed binder)
chain: B4 chain with R13T, R57V
apparent Kd (screen): 0.335 nM

B58: V57M (designed binder)
chain: B4 chain with R57M
apparent Kd (screen): 2.48 nM

Second part, the binder after the results:

apparent Kd (screen): 0.539 nM
B1: E73R (designed binder)
chain: B4 chain with R57V, E73R

apparent Kd (screen): 11.4 nM
B2: R61D (designed binder)
chain: B4 chain with R57V, R61D

apparent Kd (screen): 0.446 nM
B3: E95M (designed binder)
chain: B4 chain with R57V, E95M

apparent Kd (screen): 0.593 nM
B5: H78D (designed binder)
chain: B4 chain with R57V, H78D

apparent Kd (screen): 1.69 nM
B6: A106N (designed binder)
chain: B4 chain with R57V, A106N

apparent Kd (screen): 0.593 nM
B7: D65G (designed binder)
chain: B4 chain with R57V, D65G

apparent Kd (screen): 0.869 nM
B14: V104W (designed binder)
chain: B4 chain with R57V, V104W

apparent Kd (screen): 0.593 nM
B15: K72V (designed binder)
chain: B4 chain with R57V, K72V

apparent Kd (screen): 0.539 nM
B21: L93M (designed binder)
chain: B4 chain with R57V, L93M

apparent Kd (screen): 0.49 nM
B22: L96H (designed binder)
chain: B4 chain with R57V, L96H

apparent Kd (screen): 0.446 nM
B25: E77L (designed binder)
chain: B4 chain with R57V, E77L

apparent Kd (screen): 0.653 nM
B26: A87Q (designed binder)
chain: B4 chain with R57V, A87Q

apparent Kd (screen): 1.05 nM
B30: V85H (designed binder)
chain: B4 chain with R57V, V85H

apparent Kd (screen): 0.539 nM
B32: A102C (designed binder)
chain: B4 chain with R57V, A102C

apparent Kd (screen): 0.539 nM
B33: E101V (designed binder)
chain: B4 chain with R57V, E101V

apparent Kd (screen): 0.653 nM
B36: D65Y (designed binder)
chain: B4 chain with R57V, D65Y

apparent Kd (screen): 1.05 nM
B40: A106K (designed binder)
chain: B4 chain with R57V, A106K

apparent Kd (screen): 0.49 nM
B42: A83W (designed binder)
chain: B4 chain with R57V, A83W

apparent Kd (screen): 0.446 nM
B46: A83L (designed binder)
chain: B4 chain with R57V, A83L

apparent Kd (screen): 0.446 nM
B48: A76W (designed binder)
chain: B4 chain with R57V, A76W

apparent Kd (screen): 0.869 nM
B50: A91M (designed binder)
chain: B4 chain with R57V, A91M

apparent Kd (screen): 0.49 nM
B51: A76S (designed binder)
chain: B4 chain with R57V, A76S

apparent Kd (screen): 0.446 nM
B55: V85C (designed binder)
chain: B4 chain with R57V, V85C

apparent Kd (screen): 0.49 nM
B59: E84T (designed binder)
chain: B4 chain with R57V, E84T
